The target of the assay is T1, mouse DLK1 (moDLK1) (mouse, UniProt Q09163).
T1 chain: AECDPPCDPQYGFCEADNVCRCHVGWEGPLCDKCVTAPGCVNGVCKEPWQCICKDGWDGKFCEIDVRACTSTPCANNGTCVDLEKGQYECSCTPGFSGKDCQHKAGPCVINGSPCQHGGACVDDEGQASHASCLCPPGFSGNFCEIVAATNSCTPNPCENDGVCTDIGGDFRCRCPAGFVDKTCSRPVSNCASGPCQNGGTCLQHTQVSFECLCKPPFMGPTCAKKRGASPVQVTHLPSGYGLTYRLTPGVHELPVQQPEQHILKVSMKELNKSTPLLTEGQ

B1: I18 (antibody, V domains shown)
VH: QVQLKESGPGLVAPSQSLSITCTVSGFSLILYGVHWVRQPPGKGLEWLGLIWAGGSTNYNSALMSRLSISKDNSKSQVFLKMNSLQTDDTAMYYCVRKHSNYLAMDYWGQGTSVTVSS
VL: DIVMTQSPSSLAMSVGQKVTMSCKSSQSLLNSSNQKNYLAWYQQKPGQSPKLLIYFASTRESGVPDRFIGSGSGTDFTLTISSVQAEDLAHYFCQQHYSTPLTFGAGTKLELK
In the case of B1, the binding result is “no binding”.

The values above are taken from patent publication US20260297185 (published 2026).
